Results on one protein are retold here after article PMC7101364, “The biofilm-associated surface protein Esp of Enterococcus faecalis forms amyloid-like fibers” (NPJ Biofilms and Microbiomes, 2020).

This series concerns the molecule itself. The experiment in a line: visible aggregation in tubes; 2 uM rEsp_N in phosphate-citrate buffer, pH 3.6 to 8 tested; aggregates at pH 4.0-4.2 seen as a ring on the glass wall after 24 h at 37 °C, 200 rpm.

B1: recombinant Esp_N domain (N-terminal domain of the enterococcal surface protein Esp, amino acids 50-743) (domain or fragment)
chain: QMGEGRLANYSASGNTFQENPGYTKNYNFSDLQFNPKAITGDVLQGNTIDFEVYGKHNIAASTANWEIRLQLDERLAQYVEKIQVDPKKGVGNSRRTFVRINDSLGRPTNIWKVNYIRANDGLFAGAETTDTQTAPNGVITFEKNLDEIFKEIGADNLKSDRLMYRIYLVSHQDDDKIVPGIESTGYFLTDQDDFYNKLDVSENNSDQFKHGSVNTKYEEANIQTKDGSGSTGANGAIILDHKLTKEKNFSYSTSAKGTPWYANYKIDERLVPYVSGIQMHMVQADKVAYNVAFESGKKVADLAIERREGHENYGMGSITDNDLTKLIDFANASPRPIVVRYVLQLTKPLDEILEEMKAADKIEENAPFGEDFIFDSWLSDTNKKLIQNTYGTGYYYLQDIDGDGNPDDKEESGDTNPYIGKPELEEVYDVDTTVKGKVFIHELAGTGHKAQLVDKEGTVLAEKTIAPNEKDGAPISDTVEFEFTGVDSSKLIAKDELKIQIVSPGFDKPEEGSTVIKESPKAVDKQTVVVGFKPDAKESIRNNKNLPEDAEYSWKTEPDTSNVTDSTKGIVTVKIGNRTFDVDVEFAVKASQAMENDATYVPITTTPETTIQSGKPTFDKPDVPLANDAFSVLDVYNKDFGNASVDANTGIVTFTPAKGVGESEPITGTIPIKIVYQDGSVGTTDLAVTVSKN
notes: Enterococcal surface protein Esp of Enterococcus faecalis, amplified from strain 11279; N-terminal domain, amino acids 50-743 of the 1873-residue protein; No cleavage of the tag is mentioned; also called N-terminus of Esp; not shown: His tag (from the vector pET46-Ek/LIC)
For B1, the binding result is listed as “binds”.
